Data taken from US7960513B2, “Antibody against a human ADAM protease” (Monash University, priority 2004, dated 2011).

T1: EphA3 (wild type, expressed in cells) (UniProt P29320 21-983, limits assumed)
T1 construct: whole, on cells; also called wt EphA3; w/t EphA3
T1 sequence (looked up): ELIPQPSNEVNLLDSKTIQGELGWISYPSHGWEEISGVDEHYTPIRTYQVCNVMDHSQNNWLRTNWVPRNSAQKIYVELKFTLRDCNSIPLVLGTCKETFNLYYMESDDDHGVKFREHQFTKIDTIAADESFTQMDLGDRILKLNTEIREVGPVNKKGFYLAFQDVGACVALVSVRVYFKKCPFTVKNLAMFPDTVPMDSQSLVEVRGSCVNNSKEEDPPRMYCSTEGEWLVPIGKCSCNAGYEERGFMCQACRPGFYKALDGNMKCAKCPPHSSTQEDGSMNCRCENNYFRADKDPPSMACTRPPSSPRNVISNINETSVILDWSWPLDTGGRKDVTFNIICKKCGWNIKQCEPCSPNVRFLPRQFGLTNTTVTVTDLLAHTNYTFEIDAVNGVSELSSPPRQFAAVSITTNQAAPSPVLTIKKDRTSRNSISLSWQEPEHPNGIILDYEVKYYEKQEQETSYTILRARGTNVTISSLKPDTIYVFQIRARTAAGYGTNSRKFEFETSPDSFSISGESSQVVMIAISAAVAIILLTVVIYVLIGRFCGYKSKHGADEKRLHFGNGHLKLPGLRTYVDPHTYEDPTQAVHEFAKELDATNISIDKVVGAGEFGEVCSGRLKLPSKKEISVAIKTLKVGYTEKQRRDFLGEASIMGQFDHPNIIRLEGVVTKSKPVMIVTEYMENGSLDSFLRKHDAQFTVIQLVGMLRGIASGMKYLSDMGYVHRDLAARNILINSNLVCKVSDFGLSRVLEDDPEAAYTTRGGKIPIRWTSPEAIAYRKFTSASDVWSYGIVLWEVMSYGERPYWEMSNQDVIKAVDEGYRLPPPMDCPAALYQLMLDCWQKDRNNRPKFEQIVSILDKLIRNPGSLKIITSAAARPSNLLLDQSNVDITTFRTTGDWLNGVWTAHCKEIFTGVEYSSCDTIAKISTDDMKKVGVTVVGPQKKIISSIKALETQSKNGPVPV

B1: endogenous ADAM10 (HEK293 and LiBr melanoma cells) (enzyme, human, UniProt O14672 214-748, looked up)
chain: TTSAEKNTCQLYIQTDHLFFKYYGTREAVIAQISSHVKAIDTIYQTTDFSGIRNISFMVKRIRINTTADEKDPTNPFRFPNIGVEKFLELNSEQNHDDYCLAYVFTDRDFDDGVLGLAWVGAPSGSSGGICEKSKLYSDGKKKSLNTGIITVQNYGSHVPPKVSHITFAHEVGHNFGSPHDSGTECTPGESKNLGQKENGNYIMYARATSGDKLNNNKFSLCSIRNISQVLEKKRNNCFVESGQPICGNGMVEQGEECDCGYSDQCKDECCFDANQPEGRKCKLKPGKQCSPSQGPCCTAQCAFKSKSEKCRDDSDCAREGICNGFTALCPASDPKPNFTDCNRHTQVCINGQCAGSICEKYGLEECTCASSDGKDDKELCHVCCMKKMDPSTCASTGSVQWSRHFSGRTITLQPGSPCNDFRGYCDVFMRCRLVDADGPLARLKKAIFSPELYENIAEWIVAHWWAVLLMGIALIMLMAGFIKICSVHTPSSNPKLPPPKPLPGTLKRRRPPQPIQQPQRQRPRESYQMGHMRR
notes: whole, on cells; Both pro and mature forms are marked on the blot; also called pro (unprocessed) and mature (processed) forms
B2: wt-ADAM10: full length, wild-type ADAM10 overexpressed in cells (protein)
chain: TTVAEKNTCQLYIQTDHLFFKYYGTREAVIAQISSHVKAIDTIYQTTDFSGIRNISFMVKRIRINTTADEKDPTNPFRFPNIGVEKFLELNSEQNHDDYCLAYVFTDRDFDDGVLGLAWVGAPSGSSGGICEKSKLYSDGKKKSLNTGIITVQNYGSHVPPKVSHITFAHEVGHNFGSPHDSGTECTPGESKNLGQKENGNYIMYARATSGDKLNNNKFSLCSIRNISQVLEKKRNNCFVESGQPICGNGMVEQGEECDCGYSDQCKDECCYDANQPEGKKCKLKPGKQCSPSQGPCCTAHCAFKSKTEKCRDDSDCAKEGICNGITALCPASDPKPNFTDCNRHTQVCINGQCAGSICEKHGLEECTCASSDGKDDKELCHVCCMKKMEPSTCASTGSVQWNKYFLGRTITLQPGSPCNDFRGYCDVFMRCRLVDADGPLARLKKAIFSPELYENIAEWIVAYWWAVLLMGIALIMLMAGFIKICSVHTPSSNPKLPPPKPLPGTLKRRRPPQPIQQPQRQRPRESYQMGHMRR
modifications: left off: small tags and cut ends
notes: full length, wild-type ADAM10 overexpressed in cells

Assays:
[1] = target: T1, EphA3 (wild type, expressed in cells); assay: anti-EphA3 immunoprecipitation, anti-ADAM10 Western blot
Method: Cells were cultured in DME/10% FCS and transfected with Lipofectamine 2000 (Invitrogen), and in some experiments treated with the metalloprotease inhibitors 1,10-O-Phenanthroline (OPN, 4h, 1 mM; Mumm et al., 2000, Mol. Cell. 5 197-206) and TAPI1 (1h, 50 µM; Yan et al., 2002, J Cell Biol. 158 221-6). HEK293 cells were transfected with EphA3 (Wicks et al., 1992, Proc. Natl. Acad. Sci. USA 89 1611-1615) or ephrin-A5 (Winslow et al., 1995, Neuron 14 973-81; Lackmann et al., 1996, Proc. Natl. Acad. Sci. USA 93 2523-2527) in pEfBos vectors containing puromycin or gentamycin resistance genes, respectively and stable EphA3/HEK293 or ephrin-A5/HEK293 clones derived accordingly. Serum-starved cells were stimulated (10 min) with 1.5 ug/ml pre-clustered ephrinA5-Fc and harvested, as described previously. Immunoprecipitation was with anti-EphA3 mAb IIIA4 (Boyd et al., 1992, J Biol. Chem. 267 3262-3267. or anti-HA mAb 3F10 (Roche) conjugated to beads, and Western blotting was performed using anti-ADAM10 (Biogenesis, UK), anti-ephrinA5 (R&D Systems) and anti-ephA3 (Lackmann et al., 1997, supra) antibodies.
Initially, we investigated whether ADAM10 interacts with either EphA3 or ephrin-A5 on the cell surface and how these interactions are affected upon Eph/ephrin complex formation. […]

HEK293 cells = assay: Confocal imaging of co-cultured EphA3-diHcRed/ADAM10 and GFP-ephrin expressing cells; type: cell-based, human; details: co-incubation with GFP-ephrin-A5 or GFP-ephrin-A2 cells for 40 min
Method: (§1) FIG. 4. Mutation of acidic residues in the ADAM10 Cys-rich domain affects binding to EphA3/ephrin-A5 and cleavage of ephrin-A5. • A. In vitro binding of mutant ADAM10D+C to EphA3/ephrin-A5. ADAM10D+C[EEE-A] containing Alanine substitutions of Glu573, Glu578, Glu579 (lanes 1-4) or ADAM10D+C[RDD-A] (Ala substitutions of Arg525, Asp526, Asp527, lanes 5-8) were incubated alone (lanes 1, 5), or together with EphA3-Fc (lanes 2, 6), ephrin-A5-Fc (lanes 3, 7), or EphA3-Fc and ephrin-A5 (lanes 4, 8). Complexed proteins were extracted with Protein-A-Sepharose beads and analysed as in FIG. 2. • B. Binding of wild-type and mutant ADAM10ΔMP to EphA3 in cells. EphA3/293 cells were transfected with HA-ADAM10ΔMP or HA-ADAM10ΔMP [EEE-A]. Parental and transfected cells were treated for 10 min with or without pre-clustered ephrin-A5-Fc and lysed. Anti-HA and anti-EphA3 immunoprecipitates, and total cell lysates were analysed by Western blotting with indicated antibodies. • C. Ephrin-A5-Fc cleavage in cells expressing wt and 3A mutant ADAM10. EphA3/293 cells were transfected with full length, wild-type (wt) ADAM10, dominant-negative ADAM10ΔMP, or ADAM10 bearing alanine (3A) or 3 lysine (3K) substitutions of Glu573, 578, 579. Following exposure to clustered (+) or non-clustered ? ephrin-A5 Fc, cleaved ephrin was recovered and analysed by Western Blot as described in FIG. 1c. Parallel anti-HA blots of whole-cell lysates reveal the expression levels of ADAM10 constructs. • D. Model of ADAM protein modules and cleavage mechanism. Left, schematic representation of ADAM proteinases protein domain organization; right, schematic representation of the proposed interactions and positioning of ADAM10, EphA3, and Ephrin-A5 between interacting cells, leading to controlled ephrin-cleavage. • E. Ephrin cleavage from the cell surface is blocked by overexpression of 3A-mutant ADAM10. HEK293 cells were co-transfected with (red-fluorescent) EphA3-diHcRed and either wt ADAM10, ADAM10 bearing alanine (3A) substitutions at Glu573, Glu578, and Glu579, or dominant-negative ADAM10ΔMP. […]

[2] = system: EphA3-expressing 293 cells; assay: Ephrin-A5-Fc cleavage in EphA3/293 cells overexpressing ADAM10 constructs (Western blot of recovered ephrin); type: cell-based, human; details: overexpression of ADAM10 construct; clustered ephrin-A5-Fc
Method: as §1, with “1c.” for “1c. Parallel anti-HA blots of whole-cell lysates reveal the expression levels of ADAM10 constructs. • D. Model of ADAM protein modules and cleavage mechanism. Left, schematic representation of ADAM proteinases protein domain organization; right, schematic representation of the proposed interactions and positioning of ADAM10, EphA3, and Ephrin-A5 between interacting cells, leading to controlled ephrin-cleavage. • E. Ephrin cleavage from the cell surface is blocked by overexpression of 3A-mutant ADAM10. HEK293 cells were co-transfected with (red-fluorescent) EphA3-diHcRed and either wt ADAM10, ADAM10 bearing alanine (3A) substitutions at Glu573, Glu578, and Glu579, or dominant-negative ADAM10ΔMP.”

Molecule | binding result [1] | ephrin cleavage from the cell surface and internalisation (HEK293 cells) | ephrin-A5 cleavage [2]
B1 | binds | – | –
B2 | – | readily noticeable | did not increase ephrin cleavage above control levels
